# PMC9772228, “Structure of a RecT/Redβ family recombinase in complex with a duplex intermediate of DNA annealing”
# T1: LiRecT K191A/F194A (Listeria innocua CLIP 11262, UniProt Q92FL9 1-271, K191A;F194A)
# T1 sequence: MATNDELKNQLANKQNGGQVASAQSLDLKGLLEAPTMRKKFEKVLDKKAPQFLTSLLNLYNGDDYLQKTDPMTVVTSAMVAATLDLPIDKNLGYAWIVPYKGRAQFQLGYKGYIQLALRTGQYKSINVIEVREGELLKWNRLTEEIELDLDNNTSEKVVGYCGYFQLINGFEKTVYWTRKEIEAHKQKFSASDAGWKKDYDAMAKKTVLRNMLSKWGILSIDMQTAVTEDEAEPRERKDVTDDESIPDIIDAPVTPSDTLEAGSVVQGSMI
# T2: LiRecT V98A (Listeria innocua CLIP 11262, UniProt Q92FL9 1-271, V98A)
# T2 sequence: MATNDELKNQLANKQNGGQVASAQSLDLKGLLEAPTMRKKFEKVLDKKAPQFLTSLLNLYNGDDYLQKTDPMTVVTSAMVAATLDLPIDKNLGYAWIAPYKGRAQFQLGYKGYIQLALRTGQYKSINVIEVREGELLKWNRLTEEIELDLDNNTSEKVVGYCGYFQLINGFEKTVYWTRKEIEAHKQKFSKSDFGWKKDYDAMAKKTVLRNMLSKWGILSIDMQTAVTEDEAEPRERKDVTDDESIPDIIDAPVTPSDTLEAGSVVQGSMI
# Assays:
# LiRecT K191A/F194A = molecular target: T1, LiRecT K191A/F194A; experiment: EMSA; EMSA: PBS pH 7.4 (or KH2PO4/10 mM MgCl2 pH 6.0), 3.6 or 5 uM protein, 25 uM nt DNA, 37 C 15 min per strand, 0.8% agarose 1x TBE; cryo-EM: 20 mM KH2PO4 (Results: 10 mM), 10 mM MgCl2 pH 6.0, 37 C; native MS: 100 mM ammonium acetate pH 7, 37 C; settings: protein: recombinant, tags: N-terminal 6His vector tag (20 aa) retained, chain copies: 10, single strand
# LiRecT V98A = molecular target: T2, LiRecT V98A; experiment: as above; settings: protein: recombinant, tags: N-terminal 6His vector tag (20 aa) retained, chain copies: 10, single strand
Binder,binding result (LiRecT K191A/F194A; label: 5'-Cy3),binding result (LiRecT V98A; label: 5'-Cy3),binding result (LiRecT K191A/F194A; label: 5'-Cy5),binding result (LiRecT V98A; label: 5'-Cy5)
GCGGATGGCTTAGAGCAGAATCGCCCTGCATAGCTCGATTTTTGCGGATG (ssDNA) [Cy3-50mer],binds,binds,,
CCATCCGCAAAAATCGAGCTATGCAGGGCGATTCTGCTCTAAGCCATCCG (ssDNA) [Cy5-50mer],,,binds,binds
